Positions count from the first letter of the chain named. Names and notes keep the numbering of the source. One block for each molecule: values may come before it.
What was measured:
[1] = target: T1, wtPSP (human phosphoserine phosphatase, PSP) (Homo sapiens, UniProt P78330); assay: PNP-coupled phosphate release assay; assay type: biochemical
T1 construct: gene PSPH; recombinant human PSP with His-tag, plasmid pET28_hPSP, E. coli BL21(DE3), Talon purification, homodimer (54 kDa expected; 53 kDa by SEC)
T1 sequence (P78330 1-225): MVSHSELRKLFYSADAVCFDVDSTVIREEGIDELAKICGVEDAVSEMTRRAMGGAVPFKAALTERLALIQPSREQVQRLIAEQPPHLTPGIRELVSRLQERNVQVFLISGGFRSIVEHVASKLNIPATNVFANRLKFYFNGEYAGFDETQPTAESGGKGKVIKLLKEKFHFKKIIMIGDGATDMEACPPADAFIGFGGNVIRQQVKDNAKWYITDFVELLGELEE
Text: (§1) PNP-coupled phosphate release assay on wtPSP (human phosphoserine phosphatase, PSP)

[2] = target: T2, wtPSP (human phosphoserine phosphatase, PSP) (Homo sapiens, UniProt P78330, D32G); assay: PNP-coupled phosphate release assay; assay type: biochemical
T2 construct: gene PSPH; recombinant human PSP with His-tag, plasmid pET28_hPSP, E. coli BL21(DE3), Talon purification, homodimer (54 kDa expected; 53 kDa by SEC)
T2 sequence (P78330 1-225 D32G): T1 sequence (P78330 1-225) with D32G
Text: as §1

[3] = target: T3, wtPSP (human phosphoserine phosphatase, PSP) (Homo sapiens, UniProt P78330, D32G/R27S); assay: PNP-coupled phosphate release assay; assay type: biochemical
T3 construct: gene PSPH; recombinant human PSP with His-tag, plasmid pET28_hPSP, E. coli BL21(DE3), Talon purification, homodimer (54 kDa expected; 53 kDa by SEC)
T3 sequence (P78330 1-225 R27S/D32G): T1 sequence (P78330 1-225) with R27S, D32G
Text: as §1

[4] = target: T4, wtPSP (human phosphoserine phosphatase, PSP) (Homo sapiens, UniProt P78330, R27S); assay: PNP-coupled phosphate release assay; assay type: biochemical
T4 construct: gene PSPH; recombinant human PSP with His-tag, plasmid pET28_hPSP, E. coli BL21(DE3), Talon purification, homodimer (54 kDa expected; 53 kDa by SEC)
T4 sequence (P78330 1-225 R27S): T1 sequence (P78330 1-225) with R27S
Text: as §1

[5] = target: T1, wtPSP (human phosphoserine phosphatase, PSP); assay: SAT-coupled continuous assay of L-Ser production (DTNB, […] nm type read-out); assay type: biochemical; conditions: 3 mM MgCl2, 50 mM Hepes, 100 mM KCl, pH 7, 37 °C; 12 nM enzyme
[6] = substrate: N[C@@H](COP(=O)(O)O)C(=O)O; assay: SAT-coupled continuous assay of L-Ser production; assay type: biochemical, Homo sapiens; conditions: 3 mM MgCl2, 50 mM Hepes, 100 mM KCl, pH 7, 37 °C
Text: SAT-coupled continuous assay of L-Ser production on wtPSP (human phosphoserine phosphatase, PSP)

IC50 [1]: 273 ± 31 µM | IC50 [2]: 746 ± 26 µM | IC50 [3]: 523 ± 74 µM | IC50 [4]: 171 ± 15 µM
Molecule: N[C@@H](CO)C(=O)O [L-Ser]

Km [5]: 42 ± 12 µM
Molecule: N[C@@H](COP(=O)(O)O)C(=O)O [3-PS]

B1: wtPSP (human phosphoserine phosphatase, PSP) (Homo sapiens; R27S) (protein)
chain: T1 sequence (P78330 1-225) with R27S
notes: recombinant human PSP with His-tag, plasmid pET28_hPSP, E. coli BL21(DE3), Talon purification, homodimer (54 kDa expected; 53 kDa by SEC)
Km ([6]; 12 nM enzyme): 50 ± 3 µM | kcat ([6]; 12 nM enzyme): 39 ± 1 s⁻¹ | kcat/Km ([6]; 12 nM enzyme): 780000 M⁻¹ s⁻¹

B2: wtPSP (human phosphoserine phosphatase, PSP) (Homo sapiens; D32G) (protein)
chain: T1 sequence (P78330 1-225) with D32G
notes: as for B1
Km ([6]; 180 nM enzyme): 53 ± 5 µM | kcat ([6]; 180 nM enzyme): 2.3 ± 0.1 s⁻¹ | kcat/Km ([6]; 180 nM enzyme): 43400 M⁻¹ s⁻¹

B3: wtPSP (human phosphoserine phosphatase, PSP) (Homo sapiens; D32G/R27S) (protein)
chain: T1 sequence (P78330 1-225) with R27S, D32G
notes: as for B1
Km ([6]; 180 nM enzyme): 75 ± 12 µM | kcat ([6]; 180 nM enzyme): 2.2 ± 0.1 s⁻¹ | kcat/Km ([6]; 180 nM enzyme): 29300 M⁻¹ s⁻¹

Reference: paper PMC12443467, “A phosphoserine phosphatase variant present in the brain of Alzheimer's disease patients favors nuclear mistargeting” (The Febs Journal, 2025)
